Reference: the supplement of paper PMC9170038

Legend:
[1] = system: MS2 coat protein; test: apparent KD of MS2 coat protein, switch ON state; designed switch direction (-1 OFF switch, 1 ON switch): 1; higher = weaker reporter binding; settings: FMN input: 0 or 200 uM; Eterna round: R93 (includes R88 designs)
Procedure, shortened: (§1)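 Apparent KD was obtained for each design as the median of normalised binding-curve fits over its clusters. RNA switches transcribed on-chip from Illumina sequencing clusters were titrated with SNAP-549-labelled MS2 coat protein (twofold steps, 0.7 or 1.5 nM to 3 µM) in 100 mM Tris-HCl pH 7.5, 80 mM KCl, 4 mM MgCl2, without or with constant ligand.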

[2] = system: MS2 coat protein; test: apparent KD of MS2 coat protein, switch OFF state (with FMN for OFF switches, without FMN for ON switches); designed switch direction (-1 OFF switch, 1 ON switch): 1; higher = weaker reporter binding; settings: FMN input: 0 or 200 uM; Eterna round: R93 (includes R88 designs)
Procedure, shortened: as §1

Sequence	apparent KD of MS2 coat protein [1]	apparent KD of MS2 coat protein [2]
AAAAAAAAUGUGUAGGAUAUCAGUAAAAAUACAUGAGGAUCACCCAUGUUCAAAAAAAAAAAAACUGAGAAGGACGUGGAUGGUCC [Design 3]	12.3 nM	11.1 nM
AAAAAACAUGAGGAUCACCCAUGUAAAAAAAACACAGGAUAUCCCUUUAAAAAAAAAAAAGGAGAAGGGUGAAAAA [Nob's Hobby 4 - Jieux - Same State 1]	20.4 nM	23.4 nM
AAAAAACAUGAGGAUCACCCAUGUAAAAAAAACACAGGAUAUCCCUUUUUUAAAUAAAAAGGAGAAGGGUGAAAAA [Nob's Hobby 8 - Jieux - Same State 1]	24.1 nM	30.9 nM
AAAAAACAUGAGGAUCACCCAUGUAAAAAAAACACAGGAUAUCCCUUUUUUAAAUGGGAGGGAGAAGGGUGAAAAA [Nob's Hobby 12 - Jieux - Same State 1]	17.4 nM	29.3 nM
AAAAAACAUGAGGAUCACCCAUGUCAAAAGACAUGAGGAUAUGUACAGACUUCGGUCUGUACAGAAGGCAUGUAAA [SS1 - 1015]	24.6 nM	273 nM
AAAAAACAUGAGGAUCACCCAUGUCCUCGGACAUGAGGAUAUGUACAGACUUCGGUCUGUACAGAAGGCAUGAAAA [SS1 - 1014]	713 nM	756 nM
AAAAAACAUGAGGAUCACCCAUGUCCUCGGACAUGAGGAUAUGUACAGACUUCGGUCUGUACAGAAGGCAUGUAAA [SS1 - 1018]	901 nM	684 nM
AAAAAACAUGAGGAUCACCCAUGUCGAAAGACGUGAGGAUAUGUACAGACUUCGGUCUGUACAGAAGGCACGUAAA [SS1 - 1040]	14.3 nM	33.8 nM
AAAAAACAUGAGGAUCACCCAUGUCGAAAGACGUGAGGAUAUGUACAGACUUCGGUCUGUACAGAAGGCAUGUAAA [SS1 - 1054]	146 nM	1110 nM
AAAAAACAUGAGGAUCACCCAUGUCUUCGGACAUGAGGAUAUGUACAGACUUCGGUCUGUACAGAAGGCAUGUAAA [SS1 - 1017]	323 nM	61.2 nM
AAAAAACAUGAGGAUCACCCAUGUGAAAAUAUGGAAGGAUAUACCGAAAAAAAAAAAAAGGUAGAAGGUCUAAAAA [SS! 1 MT 4]	23 nM	32.3 nM
AAAAAACAUGAGGAUCACCCAUGUGAGAACAUGGGAGGAUAUACAAGGACGAGAGUCAAAGUAGAAGGCCUAAAAA [Garnet 65]	155 nM	29.9 nM
AAAAAACAUGAGGAUCACCCAUGUGCAAAAUUCGCAGGAUAUUCCUUUUUUAAAUGGGAGGGAGAAGGGUGUAAAA [Nob's Hobby 19 - Jieux - Same State 1]	21.9 nM	34.5 nM
AAAAACACGGUGCAGGAUAUAUUAAUAGUCACAUGAGGAUCACCCAUGUUCAUUUAUAUGAACGAGUAGAAGGGCGGUGAAAAAA [Mat - Same state - Malcolm Mod - D112]	172 nM	148 nM
AAAAAUCCAGCGCAGGAUAUCGCAGGGUGCACAUGAGGAUCACCCAUGUGUACCCAAACACCCUGCGAGAAGGGCGUUGGAAAAAA [SameState-I]	9.65 nM	11.1 nM
AAAACACAUGAGGAUCACCCAUGUAAAAACAAGGGAGGAUAUGCUUGGAAAACAUGCUAUGCAGAAGGCUCAAGUG [SS1 - 11]	42.9 nM	31.1 nM
AAAACACAUGAGGAUCACCCAUGUGCCUAAUUCGCAGGAUAUUUCUCGAUUAAAUGAUAGGAAGAAGGGUGAUAAA [Nob's Hobby 36 - Jieux - Same State 1]	186 nM	40.9 nM
AAAAGACAUGAGGAUCACCCAUGUAAAAACAUGGGAGGAUAUGCAUGGAAAACAUGCUGUGCAGAAGGCUCAUGUC [SS1 - 18]	40 nM	25.5 nM
AAAAGACAUGAGGAUCACCCAUGUAAAAACGUAGGAGGAUAUGUAUGGAAACCAGACUGUACAGAAGGCCUCUGUC [SS1 - 72]	22.2 nM	21.1 nM
AAAAUAAAAAGGUAGGAUAUGGGUAAAACUACAUGAGGAUCACCCAUGUAAUAAAAAGAAAAAAACCAGAAGGACCAAAAUAAAA [72%, More Wateronthemoon, 8]	13.2 nM	34.7 nM

Sequence	apparent KD of MS2 coat protein [1]	apparent KD of MS2 coat protein [2]
AAACAACAUGAGGAUCACCCAUGUCAAACAAAUCGAGGAUAUGGGCAGGAUUCUUCCUAACUAGAAGGCGAAAACA [Esmatidi]	164 nM	29.8 nM
AAACCACAUGAGGAUCACCCAUGUAGAAAUAUGGGAGGAUAUACGAAGACGAAAGUCAAAGUAGAAGGCCUAAAAG [saturn 1]	24.5 nM	72.4 nM
AAAGAAGAAAGCGAGGAUAUGGAUGGGUAAACAUGAGGAUCACCCAUGUAUAAGAAAGAAAGAAACCAGAAGGCGCAAAAGAAAA [Khenemmaatre Hakor]	70 nM	93.7 nM
AAAGACAUGGUGCAGGAUAUAUUAAUAGUCACAUGAGGAUCACCCAUGUUCAUUUAUAUGAACGAGUAGAAGGGCGAUGAAAAAA [SameState2 Malc#7]	38.4 nM	38.8 nM
AAAUAAAUAAGAGAGGAUAUGUCAGAGAAAACAUGAGGAUCACCCAUGUGAUAAUAAAAAGGGUGACAGAAGGCUCAAAACAAAC [Topaz 52]	19.9 nM	59.3 nM
AAAUAAAUGACUCAGGAUAUAUCAUAGAAUACAUGAGGAUCACCCAUGUUUUAAUAACAUGUUUGGUAGAAGGGAGUCAAUAAAU [LROPPY Same State 2 - v05_deltaG=1.86]	25.9 nM	116 nM
AAAUAACAUGAGGAUCACCCAUGUUACAACAAUACAGGAUAUGUGGGUGAAAAUAGCAUGACAGAAGGGUACUGUA [SameState1 Malc#33]	237 nM	124 nM
AACAAACAUGAGGAUCACCCAUGUAAACAAACAUGAGGAUAUAUAACACAACAUCAACAGAUAGAAGGCAUAAAUA [JR_SS001_Sub1202]	92.1 nM	84.8 nM
AACAAACAUGAGGAUCACCCAUGUAGAAACAUGGGAGGAUAUACGAAGACGAAAGUCAAAGUAGAAGGCCUAAAAA [Garnet 91]	69.1 nM	60.9 nM
AACAAUCUAUCUGAGGAUAUCAUAUAAAAGACAUGAGGAUCACCCAUGUAGCAGGAAACUGCAUAUGAGAAGGCAGAUAGAUUGA [SS2: 1121]	7.5 nM	10.8 nM
AACAAUCUAUCUGAGGAUAUCAUGACAAAGACAUGAGGAUCACCCAUGUGCAGGAAAACUGCUUAUGAGAAGGCAGAUAGAUUGA [SS2: 1113]	11 nM	14.6 nM
AACAAUCUAUCUGAGGAUAUCAUGUCAAAGACAUGAGGAUCACCCAUGUACCAGGAAACUGGUUAUGAGAAGGCAGAUAGAUUGA [SS2: 1115]	37.3 nM	1290 nM
AACAAUCUAUCUGAGGAUAUCAUUAAAAAGACAUGAGGAUCACCCAUGUAGCAGGAAACUGCAUAUGAGAAGGCAGAUAGAUUGA [SS2: 1123]	12.5 nM	13.9 nM
AACAAUCUAUCUGAGGAUAUCAUUUCAAAGACAUGAGGAUCACCCAUGUGCAGGAAAACUGCAAAUGAGAAGGCAGAUAGAUUGA [SS2: 1107]	10.3 nM	14.5 nM
AACAAUCUAUCUGAGGAUAUGAUGUCAAAGACAUGAGGAUCACCCAUGUGCAGGAAAACUGCAUAUCAGAAGGCAGAUAGAUUGA [SS2: 1103]	15.6 nM	18.4 nM
AACAAUCUAUCUGAGGAUAUGUGUCAAAAGACAUGAGGAUCACCCAUGUAAAAACAUGAAAAAACACAGAAGGCAGAUAGAUUGA [SS2: 1148]	41.8 nM	59.3 nM
AACAAUCUAUCUGAGGAUAUGUGUCAAAAGACAUGAGGAUCACCCAUGUAAAAACAUGGGAAAACACAGAAGGCAGAUAGAUUGA [SS2: 1151]	369 nM	184 nM
AACAAUCUAUCUGAGGAUAUGUGUCGAAAGACAUGAGGAUCACCCAUGUCAAAACAUGGAAAGAUACAGAAGGCAGAUAGAUUGA [SS2: 1158]	8.33 nM	11.9 nM
AACAAUCUAUCUGAGGAUAUGUGUCGAAAGACAUGAGGAUCACCCAUGUCAAAACAUGGGAAGAUACAGAAGGCAGAUAGAUUGA [SS2: 1159]	79.9 nM	417 nM
